Data: patent publication US20040014178A1 (published 2004)

B1: vWb (von Willebrand factor binding protein) from S. aureus, wild type secreted protein (other)
chain: VVSGEKNPYVSESLKLTNNKNKSRTVEEYKKSLDDLIWSFPNLDNERFDNPEYKEAMKKYQQRFMAEDEALKKFFSEEKKIKNGNTDNLDYLGLSHERYESVFNTLKKQSEEFLKEIEDIKKDNPELKDFNEEEQLKCDLELNKLENQILMLGKTFYQNYRDDVESLYSKLDLIMGYKDEERANKKAVNKRMLENKKEDLETIIDEFFSDIDKTRPNNIPVLEDEKQEEKNHKNMAQLKSDTEAAKSDESKRSKRSKRSLNTQNHKPASQEVSEQQKAEYDKRAEERKARFLDNQKIKKTPVVSLEYDFEHKQRIDNENDKKLVVSAPTKKPTSPTTYTETTTQVPMPTVERQTQQQIIYNAPKQLAGLNGESHDFTTTHQSPTTSNHTHNNVVEFEETSALPGRKSGSLVGISQIDSSHLTEREKRVIKREHVREAQKLVDNYKDTHSYKDRINAQQKVNTLSEGHQKRFNKQINKVYNGK
notes: Purified from the culture supernatant of S. aureus Newman with the Eap gene deleted; also called wild type vWb; purified secreted vWb protein
B2: phagemid clone SlvW2 (vWbl fragment displayed on phagemid particles) (other)
chain: GNEVQETEEGTHDAPGIIGDKWQYTGQTTTEDGITTHIYQRIQSEIPNEAPQETPVALEVTRYVDSEGN

Columns and labels:
[1] = target: T1, human recombinant von Willebrand factor (human, UniProt P04275 764-2813); test: blot of vWb on nitrocellulose probed with 125I-labelled vWF
T1 construct: also called rvWf; rvWF

[2] = target: T1, human recombinant von Willebrand factor; test: phagemid clone isolated by panning the S. lugdunensis library against vWF

Binder	binding result [1]	binding result [2]
B1	binds	–
B2	–	binds
